According to publication PMC5114558, “Reader domain specificity and lysine demethylase-4 family function” (Nature Communications, 2016):
Residue numbers refer to the chain shown, from its start. No end group written: not given here. Me3 = trimethyl-lysine

Assays:
Settings in all cases: both partners purified
KDM4B-DTD N960A = molecular target: T1, KDM4B-DTD N960A (human, UniProt O94953 917-1031, N960A); assay: fluorescence polarisation; fluorescein-labelled histone peptide 3 nM, KDM4 DTD titrated 0.1-100 μM; 30 mM HEPES, 150 mM NaCl pH 7.4, 0.01% Triton X-100
T1 construct: Human KDM4B double tudor domain, residues 917-1031 of UniProt O94953 (isoform 1); also called N960A variant; source: E. coli BL21 (DE3), purified (Ni-NTA)
T1 sequence (looked up): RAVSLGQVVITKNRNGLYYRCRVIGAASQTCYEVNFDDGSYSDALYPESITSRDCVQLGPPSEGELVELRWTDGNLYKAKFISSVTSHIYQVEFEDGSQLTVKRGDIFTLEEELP

KDM4B-DTD S965D = molecular target: T2, KDM4B-DTD S965D (human, UniProt O94953 917-1031, S965D); assay: as above
T2 construct: Human KDM4B double tudor domain, residues 917-1031 of UniProt O94953 (isoform 1); also called KDM4B-S965D; source: E. coli BL21 (DE3), purified (Ni-NTA)
T2 sequence (looked up): T1 sequence (looked up) with A44N, S49D

[1] = molecular target: T3, KDM4C double tudor domain (KDM4C-DTD), HaloTag-tagged, wild type (human, UniProt Q9H3R0 877-991); assay: as above
T3 construct: Human KDM4C double tudor domain, residues 877-991 of UniProt Q9H3R0 (isoform 1); pFN29 construct; also called HT-KDM4 DTD; source: E. coli BL21 (DE3), purified (Ni-NTA); not shown: HaloTag, N-terminal, kept
T3 sequence (looked up): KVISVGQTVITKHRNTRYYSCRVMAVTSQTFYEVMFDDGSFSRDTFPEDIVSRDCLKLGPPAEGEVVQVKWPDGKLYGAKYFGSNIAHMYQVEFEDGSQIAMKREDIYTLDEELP

KDM4A-DTD N931D = molecular target: T4, KDM4A-DTD N931D (human, UniProt O75164 895-1011, N931D); assay: as above
T4 construct: Human KDM4A double tudor domain, residues 895-1011 of UniProt O75164 (isoform 1); source: E. coli BL21 (DE3), purified (Ni-NTA)
T4 sequence (looked up): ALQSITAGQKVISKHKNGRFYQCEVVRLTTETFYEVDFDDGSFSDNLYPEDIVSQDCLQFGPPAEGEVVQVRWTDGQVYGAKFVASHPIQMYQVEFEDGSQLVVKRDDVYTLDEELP

[2] = molecular target: T5, KDM4A double tudor domain (KDM4A-DTD), His6 tag cleaved, for crystallization (human, UniProt O75164 895-1011); assay: crystal structure; KDM4A-DTD mixed with H3K23me3 peptide at about 1:1.5, crystallized at 20 °C in 100 mM CAPS pH 10.5, 200 mM lithium sulfate, 1.2 M NaH2PO4, 0.8 M K2HPO4
T5 construct: Human KDM4A double tudor domain, residues 895-1011 of UniProt O75164 (isoform 1); pET28 construct (pET28b in the plasmid section, pET28a in the purification section); also called N-His6-KDM4A-DTD; source: E. coli BL21 (DE3), purified (HisTrap, thrombin cleavage, gel filtration); not shown: His6, N-terminal, cleaved
T5 sequence (looked up): T4 sequence (looked up) with D37N

B1: H3K4me3 peptide, fluorescein-labelled (peptide)
chain: ARTK(Me3)QTARKSTGGK
modifications: also: fluorescein label, end not given here
Binder B1 has a Kd (KDM4B-DTD N960A) of 303 µM, a Kd (KDM4B-DTD S965D) of roughly 200 µM and a Kd [1] of 6.8 µM.

B2: H3K14me3 peptide, fluorescein-labelled (peptide)
chain: ARKSTGGK(Me3)APRKQLATK
modifications: also: fluorescein label, end not given here
B2 showed a Kd (KDM4A-DTD N931D) of 12.2 µM.

B3: H3 (19-28) K23me3 peptide for co-crystallization (peptide, UniProt P68431 20-29, looked up)
peptide: QLATK(Me3)AARKS
notes: density seen for Q19-K27; also called H3K23me3 peptide; H3 (19-27) K23me3 peptide; source: synthetic peptide, bought: Peptide 2.0
B3: binds [2].
